Data: patent US20240417485A1

Tests used:
[1] = biological target: human uPAR expressed on the cell surface (human) (UniProt Q03405); assay: flow cytometry on 293T cells, isotype control (background)
[2] = biological target: human uPAR expressed on the cell surface (human) (UniProt Q03405); assay: flow cytometry on A375 cells, isotype control (background)
[3] = biological target: human uPAR expressed on the cell surface (human) (UniProt Q03405); assay: flow cytometry on 293T-uPAR cells, isotype control (background)

human uPAR expressed on the cell surface (human), sequence (Q03405 23-305): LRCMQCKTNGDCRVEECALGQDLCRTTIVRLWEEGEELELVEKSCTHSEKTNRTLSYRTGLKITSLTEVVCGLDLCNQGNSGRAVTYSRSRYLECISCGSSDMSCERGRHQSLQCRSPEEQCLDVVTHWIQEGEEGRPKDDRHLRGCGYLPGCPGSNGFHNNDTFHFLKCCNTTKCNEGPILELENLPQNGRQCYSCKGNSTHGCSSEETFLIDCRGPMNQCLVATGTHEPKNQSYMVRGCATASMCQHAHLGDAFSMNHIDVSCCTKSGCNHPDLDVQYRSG

- MFI [1]: 62
- MFI [2]: 71.3
- MFI [3]: 46.4
Substance: isotype antibody
